Experimental data: US20110151541

Biological target: gelatin

B1: recombinant stem bromelain (protein)
chain: SRDEPNDPMMKRFEEWMAEYGRVYKDDDEKMRRFQIFKNNVKHIETFNSRNENSYTLGINQFTDMTKSEFVAQYTGVSLPLNIEREPVVSFDDVNISAVPQSIDWRDYGAVNEVKNQNPCGSCWSFAAIATVEGIYKIKTGYLVSLSEQEVLDCAVSYGCKGGWVNKAYDFIISNNGVTTEENYPYLAYQGTCNANSFPNSAYITGYSYVRRNDERSMMYAVSNQPIAALIDASENFQYYNGGVFSGPCGTSLNHAITIIGYGQDSSGTKYWIVRNSWGSSWGEGGYVRMARGVSSSSGVCGIAMAPLFPTLQSGANAEVIKMVSET
Protein B1 has a Diameter of halo zones (mm), Average of 9 mm, a Diameter of halo zones (mm), Plate 1 of 8 mm and a Diameter of halo zones (mm), Plate 2 of 10 mm. The Diameter of halo zones (mm), Plate 3 was 9 mm.
